Laboratory results published in PMC3648612 (Nature structural & molecular biology, 2013).

T1: Med12 (Srb8), S. cerevisiae (S. cerevisiae, UniProt P25648 1-1427)
T1 sequence: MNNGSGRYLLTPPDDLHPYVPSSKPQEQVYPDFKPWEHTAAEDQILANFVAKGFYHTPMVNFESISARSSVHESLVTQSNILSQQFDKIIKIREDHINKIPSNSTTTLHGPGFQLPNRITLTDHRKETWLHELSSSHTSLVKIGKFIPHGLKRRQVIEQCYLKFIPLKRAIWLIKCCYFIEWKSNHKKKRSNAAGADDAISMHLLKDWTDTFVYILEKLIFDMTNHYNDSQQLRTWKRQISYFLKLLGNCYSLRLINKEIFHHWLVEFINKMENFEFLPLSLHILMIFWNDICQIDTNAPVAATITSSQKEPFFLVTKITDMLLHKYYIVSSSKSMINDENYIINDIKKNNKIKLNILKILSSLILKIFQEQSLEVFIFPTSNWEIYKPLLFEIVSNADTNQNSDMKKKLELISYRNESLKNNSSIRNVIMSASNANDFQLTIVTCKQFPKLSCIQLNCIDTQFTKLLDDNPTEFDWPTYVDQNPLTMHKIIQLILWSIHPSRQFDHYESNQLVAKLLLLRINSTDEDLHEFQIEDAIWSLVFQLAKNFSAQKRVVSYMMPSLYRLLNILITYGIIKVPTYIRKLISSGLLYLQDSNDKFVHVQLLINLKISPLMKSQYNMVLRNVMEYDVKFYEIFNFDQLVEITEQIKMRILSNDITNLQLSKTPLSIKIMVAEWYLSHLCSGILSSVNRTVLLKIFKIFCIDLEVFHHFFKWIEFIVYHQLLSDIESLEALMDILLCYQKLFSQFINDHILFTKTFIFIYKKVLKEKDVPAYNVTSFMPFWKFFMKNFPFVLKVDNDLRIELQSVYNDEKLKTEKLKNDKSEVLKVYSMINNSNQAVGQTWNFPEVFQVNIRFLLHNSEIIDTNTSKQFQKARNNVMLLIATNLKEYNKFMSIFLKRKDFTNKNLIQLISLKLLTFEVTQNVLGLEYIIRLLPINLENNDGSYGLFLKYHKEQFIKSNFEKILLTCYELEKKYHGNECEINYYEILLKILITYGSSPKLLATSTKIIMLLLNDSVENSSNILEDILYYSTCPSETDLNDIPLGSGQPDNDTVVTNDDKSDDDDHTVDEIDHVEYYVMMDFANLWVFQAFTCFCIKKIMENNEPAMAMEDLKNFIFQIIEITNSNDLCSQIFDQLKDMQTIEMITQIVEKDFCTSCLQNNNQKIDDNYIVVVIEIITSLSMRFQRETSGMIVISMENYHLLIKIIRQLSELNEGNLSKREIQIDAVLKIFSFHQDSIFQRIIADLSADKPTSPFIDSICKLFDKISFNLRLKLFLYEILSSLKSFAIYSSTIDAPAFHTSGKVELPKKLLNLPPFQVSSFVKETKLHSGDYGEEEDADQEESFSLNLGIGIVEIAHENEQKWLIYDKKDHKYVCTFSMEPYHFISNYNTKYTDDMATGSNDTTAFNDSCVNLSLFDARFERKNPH

T2: Cdk8 (Srb10) with a C-terminal TAP tag, S. cerevisiae (S. cerevisiae, UniProt P39073 1-555)
T2 sequence: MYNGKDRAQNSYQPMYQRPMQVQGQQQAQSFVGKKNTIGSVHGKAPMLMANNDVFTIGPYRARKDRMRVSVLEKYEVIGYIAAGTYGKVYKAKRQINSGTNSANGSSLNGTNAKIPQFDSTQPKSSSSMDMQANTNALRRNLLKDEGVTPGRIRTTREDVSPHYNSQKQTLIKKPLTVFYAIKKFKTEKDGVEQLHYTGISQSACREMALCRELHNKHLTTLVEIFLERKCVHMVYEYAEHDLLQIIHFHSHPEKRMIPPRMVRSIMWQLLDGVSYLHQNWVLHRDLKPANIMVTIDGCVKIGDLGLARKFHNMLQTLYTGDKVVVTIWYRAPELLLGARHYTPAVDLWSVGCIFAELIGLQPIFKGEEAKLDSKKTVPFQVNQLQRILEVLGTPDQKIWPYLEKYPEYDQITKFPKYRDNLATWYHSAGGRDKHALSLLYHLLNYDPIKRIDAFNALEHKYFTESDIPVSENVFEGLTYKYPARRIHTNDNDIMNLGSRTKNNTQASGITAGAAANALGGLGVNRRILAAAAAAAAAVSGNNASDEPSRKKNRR


What was measured:
[1] = target: T1, Med12 (Srb8), S. cerevisiae; test: cryo-EM structure
[2] = target: T2, Cdk8 (Srb10) with a C-terminal TAP tag, …; test: tandem affinity purification

Binder	binding result [1]	binding result [2]
Med13 (Srb9), S. cerevisiae (natural protein) MSSDASTYRLEDVLSSFYRVEKIKKINYHQYISKAQNDQWSIQMEFMLRKQDPKTLVALLSRDLWCFSINDDPVPTPPAIEHKPVSPDKIGTFTADYSKPNLPPHYALFLKALRRKIYINLALGSHNKLIQFGNACISLSGVPNYLVQLEPHLFVNGDLTVSLCAKNMGLVPMKEENLEESFLSKHALYLAPSGIRMHLAPASKQGYLITPPKHTELLLTTLSVSHGINLQNKKNLKWVAVVPDLGHLNGHTPTIASYLTPLLEAKKLVWPLHLIFAQPVADIENSTSGDPSEFHCLQDALDAIDDFIQLKQTAAYRTPGSSGVLSSNIAGTNPLSSDGAYTEQFQHYKNNSISSQPASYHSVQETNKISPKDFSPNFTGIDKLMLSPSDQFAPAFLNTPNNNINENELFNDRKQTTVSNDLENSPLKTELEANGRSLEKVNNSVSKTGSVDTLHNKEGTLEQREQNENLPSDKSDSMVDKELFGEDEDEDLFGDSNKSNSTNESNKSISDEITEDMFEMSDEEENNNNKSINKNNKEMHTDLGKDIPFFPSSEKPNIRTMSGTTKRLNGKRKYLDIPIDEMTLPTSPLYMDPGAPLPVETPRDRRKSVFAPLNFNPIIENNVDNKYKSGGKFSFSPLQKEEALNFDISMADLSSSEEEEDEEENGSSDEDLKSLNVRDDMKPSDNISTNTNIHEPQYINYSSIPSLQDSIIKQENFNSVNDANITSNKEGFNSIWKIPQNDIPQTESPLKTVDSSIQPIESNIKMTLEDNNVTSNPSEFTPNMVNSEISNLPKDKSGIPEFTPADPNLSFESSSSLPFLLRHMPLASIPDIFITPTPVVTISEKEQDILDLIAEQVVTDYNILGNLGIPKIAYRGVKDCQEGLITTTMLQLFSTFDRLNGNDTISKFYNMKQPYVFVKKHHELIKVKHDSQPFIKFLNFRPPNGIKNFKSLLLSSSFKEDCLSFAPTLSQTYINQELGFCELLKLTNEDPPGLMYLKAFDKNKLLLLAAQIVSYCSNNKNSIKNVPPILIILPLDNATLTELVDKANIFQVIKNEVCAKMPNIELYLKVIPMDFIRNVLVTVDQYVNVAISIYNMLPPKSVKFTHIAHTLPEKVNFRTMQQQQMQQQQQQQQQQQNNSTGSSSIIYYDSYIHLAYSRSVDKEWVFAALSDSYGQGSMTKTWYVGNSRGKFDDACNQIWNIALNLASKKFGKICLILTRLNGILPDDELMNWRRLSGRNIHLAVVCVDDNSKISFIDEDKLYPSFKPIYKDTRFGGRMDMTRLYDYEIRDIDQDIHGIVFQHPFPLAHSQHRCAIRSGALIKFKKCDGDTVWDKFAVNLLNCPHSDSTQLLETILEEFRNLAALNVWYGLSDGEDGHIPWHILAVKKMMNTLVHTRVKIANTSAATVHTATSSSIILSDK	binds	
CycC (Srb11), S. cerevisiae (natural protein) MSGSFWTSTQRHHWQYTKASLAKERQKLWLLECQLFPQGLNIVMDSKQNGIEQSITKNIPITHRDLHYDKDYNLRIYCYFLIMKLGRRLNIRQYALATAHIYLSRFLIKASVREINLYMLVTTCVYLACKVEECPQYIRTLVSEARTLWPEFIPPDPTKVTEFEFYLLEELESYLIVHHPYQSLKQIVQVLKQPPFQITLSSDDLQNCWSLINDSYINDVHLLYPPHIIAVACLFITISIHGKPTKGSSLASAASEAIRDPKNSSSPVQIAFNRFMAESLVDLEEVMDTIQEQITLYDHWDKYHEQWIKFLLHTLYLRPASAI	binds	binds
